Reference: patent US20250320281A1

Tests used:
Assay in all cases: cell-based or functional assay
[1] = target: HIV-1 Env of isolate MG RM-D-011 (HIV-1)
[2] = target: HIV-1 Env of isolate MG RM-D-012 (HIV-1)
[3] = target: HIV-1 Env of isolate MG RM-D-013 (HIV-1)
[4] = target: HIV-1 Env of isolate MG RM-D-014 (HIV-1)
[5] = target: HIV-1 Env of isolate MG RM-D-016 (HIV-1)
[6] = target: HIV-1 Env of isolate MG RM-D-018 (HIV-1)
[7] = target: HIV-1 Env of isolate MG RM-D-019 (HIV-1)
[8] = target: HIV-1 Env of isolate MG RM-D-020 (HIV-1)
[9] = target: HIV-1 Env of isolate MG RM-D-021 (HIV-1)
[10] = target: HIV-1 Env of isolate MG RM-D-022 (HIV-1)
[11] = target: HIV-1 Env of isolate MG RM-D-024 (HIV-1)
[12] = target: HIV-1 Env of isolate MG RM-D-026 (HIV-1)
[13] = target: HIV-1 Env of isolate MG RM-D-028 (HIV-1)
[14] = target: HIV-1 Env of isolate MG RM-D-029 (HIV-1)
[15] = target: HIV-1 Env of isolate MGRM-C-005 (HIV-1)
[16] = target: HIV-1 Env of isolate MGRM-F1-004 (HIV-1)
[17] = target: HIV-1 Env of isolate MGRM-F1-006 (HIV-1)
[18] = target: HIV-1 Env of isolate MGRM-F1-008 (HIV-1)
[19] = target: HIV-1 Env of isolate MGRM-F1-010 (HIV-1)
[20] = target: HIV-1 Env of isolate MGRM-F1-012 (HIV-1)
[21] = target: HIV-1 Env of isolate MGRM-F1-013 (HIV-1)
[22] = target: HIV-1 Env of isolate MGRM-F1-014 (HIV-1)
[23] = target: HIV-1 Env of isolate MGRM-F1-015 (HIV-1)
[24] = target: HIV-1 Env of isolate MGRM-F1-016 (HIV-1)
[25] = target: HIV-1 Env of isolate MGRM-F1-017 (HIV-1)
[26] = target: HIV-1 Env of isolate MGRM-F1-018 (HIV-1)
[27] = target: HIV-1 Env of isolate MGRM-F1-020 (HIV-1)
[28] = target: HIV-1 Env of isolate MGRM-F1-021 (HIV-1)
[29] = target: HIV-1 Env of isolate MGRM-F1-022 (HIV-1)
[30] = target: HIV-1 Env of isolate MGRM-F1-023 (HIV-1)
[31] = target: HIV-1 Env of pseudovirus MGRM-AE-007 (subtype AE) (HIV-1)
[32] = target: HIV-1 Env of pseudovirus MGRM-AE-008 (subtype AE) (HIV-1)
[33] = target: HIV-1 Env of pseudovirus MGRM-AG-001 (subtype AG) (HIV-1)
[34] = target: HIV-1 Env of pseudovirus MGRM-AG-002 (subtype AG) (HIV-1)
[35] = target: HIV-1 Env of pseudovirus MGRM-AG-003 (subtype AG) (HIV-1)
[36] = target: HIV-1 Env of pseudovirus MGRM-AG-005 (subtype AG) (HIV-1)
[37] = target: HIV-1 Env of pseudovirus MGRM-AG-006 (subtype AG) (HIV-1)
[38] = target: HIV-1 Env of pseudovirus MGRM-AG-008 (subtype AG) (HIV-1)
[39] = target: HIV-1 Env of pseudovirus MGRM-AG-009 (subtype AG) (HIV-1)
[40] = target: HIV-1 Env of pseudovirus MGRM-AG-011 (subtype AG) (HIV-1)
[41] = target: HIV-1 Env of pseudovirus MGRM-AG-012 (subtype AG) (HIV-1)
[42] = target: HIV-1 Env of pseudovirus MGRM-AG-013 (subtype AG) (HIV-1)

Chain of PGT-143 (4980_N08) (antibody) (VH): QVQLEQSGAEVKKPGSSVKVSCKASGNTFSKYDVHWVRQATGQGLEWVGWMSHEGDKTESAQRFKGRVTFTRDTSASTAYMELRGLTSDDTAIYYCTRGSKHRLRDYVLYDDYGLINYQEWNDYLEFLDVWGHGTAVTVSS
Chain of PGT-143 (4980_N08) (antibody) (VL): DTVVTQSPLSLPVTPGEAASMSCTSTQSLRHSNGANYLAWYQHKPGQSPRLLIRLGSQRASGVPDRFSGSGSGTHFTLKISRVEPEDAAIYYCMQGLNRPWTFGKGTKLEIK
Chain of PGT-141 (4964_G22; 4993_K13) (antibody) (VH): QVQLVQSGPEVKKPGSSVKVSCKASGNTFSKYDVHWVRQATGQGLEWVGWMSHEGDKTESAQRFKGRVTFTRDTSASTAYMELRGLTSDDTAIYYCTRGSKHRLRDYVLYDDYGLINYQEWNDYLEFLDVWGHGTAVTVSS
Chain of PGT-141 (4964_G22; 4993_K13) (antibody) (VL): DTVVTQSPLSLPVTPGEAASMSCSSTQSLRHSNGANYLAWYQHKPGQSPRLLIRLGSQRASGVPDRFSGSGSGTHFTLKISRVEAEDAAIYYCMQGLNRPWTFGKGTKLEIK
Chain of PGT-144 (4970_K22) (antibody) (VH): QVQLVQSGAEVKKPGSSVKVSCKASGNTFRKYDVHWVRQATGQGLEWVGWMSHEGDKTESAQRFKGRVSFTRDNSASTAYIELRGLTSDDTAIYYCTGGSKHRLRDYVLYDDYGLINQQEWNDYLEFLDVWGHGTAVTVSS
Chain of PGT-144 (4970_K22) (antibody) (VL): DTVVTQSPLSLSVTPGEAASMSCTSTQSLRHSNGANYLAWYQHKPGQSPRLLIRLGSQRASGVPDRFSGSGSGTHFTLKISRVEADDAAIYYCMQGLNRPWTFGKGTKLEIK

## PGT-141 (4964_G22; 4993_K13) (antibody)
[1]
  IC50: > 50 µg/mL
[2]
  IC50: > 50 µg/mL
[3]
  IC50: 0.179 µg/mL
[4]
  IC50: 0.01 µg/mL
[5]
  IC50: > 50 µg/mL
[6]
  IC50: > 50 µg/mL
[7]
  IC50: 1.66 µg/mL
[8]
  IC50: > 50 µg/mL
[9]
  IC50: > 50 µg/mL
[10]
  IC50: > 50 µg/mL
[11]
  IC50: > 50 µg/mL
[12]
  IC50: 32.5 µg/mL
[13]
  IC50: < 50 µg/mL
[14]
  IC50: 0.057 µg/mL
[15]
  IC50, pseudovirus neutralization: 8.83 µg/mL
[16]
  IC50: 0.021 µg/mL
[17]
  IC50: 8.99 µg/mL
[18]
  IC50: 0.193 µg/mL
[19]
  IC50: > 50 µg/mL
[20]
  IC50: > 50 µg/mL
[21]
  IC50: 0.043 µg/mL
[22]
  IC50: 0.001 µg/mL
[23]
  IC50: > 50 µg/mL
[24]
  IC50: > 50 µg/mL
[25]
  IC50: 30.8 µg/mL
[26]
  IC50: 0.785 µg/mL
[27]
  IC50: 1.15 µg/mL
[28]
  IC50: > 50 µg/mL
[29]
  IC50: 0.114 µg/mL
[30]
  IC50: 0.307 µg/mL
[31]
  IC50, pseudovirus neutralization: 33.1 µg/mL
[32]
  IC50, pseudovirus neutralization: 0.101 µg/mL
[33]
  IC50, pseudovirus neutralization: 18 µg/mL
[34]
  IC50, pseudovirus neutralization: 0.049 µg/mL
[35]
  IC50, pseudovirus neutralization: > 50 µg/mL
[36]
  IC50, pseudovirus neutralization: 0.497 µg/mL
[37]
  IC50, pseudovirus neutralization: > 50 µg/mL
[38]
  IC50, pseudovirus neutralization: 19.2 µg/mL
[39]
  IC50, pseudovirus neutralization: > 50 µg/mL
[40]
  IC50, pseudovirus neutralization: 0.118 µg/mL
[41]
  IC50, pseudovirus neutralization: > 50 µg/mL
[42]
  IC50, pseudovirus neutralization: > 50 µg/mL

## PGT-143 (4980_N08) (antibody)
[1]
  IC50: > 50 µg/mL
[2]
  IC50: > 50 µg/mL
[3]
  IC50: 0.386 µg/mL
[4]
  IC50: 0.009 µg/mL
[5]
  IC50: > 50 µg/mL
[6]
  IC50: > 50 µg/mL
[7]
  IC50: 0.277 µg/mL
[8]
  IC50: > 50 µg/mL
[9]
  IC50: > 50 µg/mL
[10]
  IC50: > 50 µg/mL
[11]
  IC50: > 50 µg/mL
[12]
  IC50: 44.6 µg/mL
[13]
  IC50: > 50 µg/mL
[14]
  IC50: 0.2 µg/mL
[16]
  IC50: 0.036 µg/mL
[17]
  IC50: 12.3 µg/mL
[18]
  IC50: 0.189 µg/mL
[19]
  IC50: > 50 µg/mL
[20]
  IC50: > 50 µg/mL
[21]
  IC50: 0.013 µg/mL
[22]
  IC50: 0.001 µg/mL
[23]
  IC50: > 50 µg/mL
[24]
  IC50: > 50 µg/mL
[25]
  IC50: 26.3 µg/mL
[26]
  IC50: 0.701 µg/mL
[27]
  IC50: 0.98 µg/mL
[28]
  IC50: > 50 µg/mL
[29]
  IC50: 0.082 µg/mL
[30]
  IC50: 0.972 µg/mL
[31]
  IC50, pseudovirus neutralization: 13.6 µg/mL
[32]
  IC50, pseudovirus neutralization: 0.135 µg/mL
[33]
  IC50, pseudovirus neutralization: 18.9 µg/mL
[34]
  IC50, pseudovirus neutralization: 0.076 µg/mL
[35]
  IC50, pseudovirus neutralization: > 50 µg/mL
[36]
  IC50, pseudovirus neutralization: 1.11 µg/mL
[37]
  IC50, pseudovirus neutralization: > 50 µg/mL
[38]
  IC50, pseudovirus neutralization: 34 µg/mL
[39]
  IC50, pseudovirus neutralization: > 50 µg/mL
[40]
  IC50, pseudovirus neutralization: 0.156 µg/mL
[41]
  IC50, pseudovirus neutralization: > 50 µg/mL
[42]
  IC50, pseudovirus neutralization: > 50 µg/mL

## PGT-144 (4970_K22) (antibody)
[1]
  IC50: > 50 µg/mL
[2]
  IC50: > 50 µg/mL
[3]
  IC50: > 50 µg/mL
[4]
  IC50: 0.113 µg/mL
[5]
  IC50: > 50 µg/mL
[6]
  IC50: > 50 µg/mL
[7]
  IC50: > 50 µg/mL
[8]
  IC50: > 50 µg/mL
[9]
  IC50: > 50 µg/mL
[10]
  IC50: > 50 µg/mL
[11]
  IC50: > 50 µg/mL
[12]
  IC50: > 50 µg/mL
[13]
  IC50: > 50 µg/mL
[14]
  IC50: 0.459 µg/mL
[16]
  IC50: 0.105 µg/mL
[17]
  IC50: 20.6 µg/mL
[18]
  IC50: 0.507 µg/mL
[19]
  IC50: > 50 µg/mL
[20]
  IC50: > 50 µg/mL
[21]
  IC50: 0.509 µg/mL
[22]
  IC50: 0.014 µg/mL
[23]
  IC50: > 50 µg/mL
[24]
  IC50: > 50 µg/mL
[25]
  IC50: > 50 µg/mL
[26]
  IC50: > 50 µg/mL
[27]
  IC50: 8.93 µg/mL
[28]
  IC50: > 50 µg/mL
[29]
  IC50: 0.382 µg/mL
[30]
  IC50: 1.16 µg/mL
[31]
  IC50, pseudovirus neutralization: > 50 µg/mL
[32]
  IC50, pseudovirus neutralization: 3.55 µg/mL
[33]
  IC50, pseudovirus neutralization: > 50 µg/mL
[34]
  IC50, pseudovirus neutralization: 7.78 µg/mL
[35]
  IC50, pseudovirus neutralization: > 50 µg/mL
[36]
  IC50, pseudovirus neutralization: > 50 µg/mL
[37]
  IC50, pseudovirus neutralization: > 50 µg/mL
[38]
  IC50, pseudovirus neutralization: > 50 µg/mL
[39]
  IC50, pseudovirus neutralization: > 50 µg/mL
[40]
  IC50, pseudovirus neutralization: 44.6 µg/mL
[41]
  IC50, pseudovirus neutralization: > 50 µg/mL
[42]
  IC50, pseudovirus neutralization: > 50 µg/mL
